Experimental findings from the nanobody polyreactivity screen of Harvey et al. (2022) are described below.

A short description of this data set: yeast display, Sf9 membrane polyspecificity reagent, FACS + sequencing; frameworks hold sequencing errors. In a few lines:
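Genes from sorted yeast were amplified by colony PCR, read by MiSeq 2 × 250 sequencing and filtered on CDR length. These cells carried a synthetic nanobody library in Saccharomyces cerevisiae BJ5465 and were sorted by FACS into low and high (top ~1%) gates on anti-HA and streptavidin fluorescence. Polyreactivity is labelled according to the gate of origin.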
“QVQLVESGGGLVQAGGSLRISCAASGSIFKKYAMGWYIQAPGKEREFVAAITRGTYYADSVKGRFTISRDNAKNTVYLQMNSLKPEDTAVYDCYREYWGRGYYRVRGEYDYWGQGTQVTVSS”: the “polyreactivity (PSR sort gate)” value is “low polyreactivity”. Under “QVQLVESGGGLVQAGGSLRISCAASGSIFSWKDMGWYRQAPGKERELVAAITSGGSTYYADSVKGRFTISRDNAKNTVYLQMNSLKPEDTAVYYCAAVFLLFGFEWSYDYWGQGTQVTVTS” stands “low polyreactivity”; under “QVQLVESGGGLVQAGGSLRISCAASGSIFVKNAMGWYRQAPGKEREFVAAITTSGGSTNYADSVKGRFTISRDNAKNTVYLQMNSLKPEDTAVYYCNTDIFPAAYDYWGQGTQVTVSS”, “low polyreactivity”.

Turning to “QVQLVESGGGLVQAGGSLRISCAASGSIFVLYAMGWYRQAPGKERELVATITWSGDSTYYADSVKGRFTISRDNAKNTVYLQMNSLKPEDTAVYYCNKRIWDQYDWGQGTQVTVSS”, the “polyreactivity (PSR sort gate)” value is given as “low polyreactivity”. The result for “QVQLVESGGGLVQAGGSLRISCAASGSIFYENTMGWYRQAPGKEREFVAAISRSGGSTYYADSVKGRFTISRDNAKNTVYLQMNSLKPEDTAVYYCAARSRPGYAVYYWGQGTQVTVSS” reads “high polyreactivity”; that for “QVQLVESGGGLVQAGGSLRISCAASGSIFYGYAMGWYRQAPGKERELVAAITWSGGSTYYADSVKGRFTISRDNAKNTVYLQMNSLNPEDTAVYFCNAVSTRFRVRTSDYWGQGTQVTVSS”, “high polyreactivity”. The result for “QVQLVESGGGLVQAGGSLRISCAASGSNQDSYTMGWYRQAPGKERELVATISTSGGSTYYADSVKGRFTISRDNAKHTVYLQLNSLKPEDTAVYYCNADDPFGPHRYNSWGQGTQVTVSS” reads “low polyreactivity”. The result for “QVQLVESGGGLVQAGGSLRISCAASGSTFDANAMGRYRQAPGKEREMVAANSYSGGTTYYADSVKGRFTISRDNAKNTVYLQMNSLKQEDTAVYYCATRKAFTAGSYNVYYGEYYWGQGTQVTVSS” reads “low polyreactivity”. As to “QVQLVESGGGLVQAGGSLRISCAASGSTFDENAMGWYRQAPGKERELVAVISDSGGSTYYADSVKGRFTISRDNAKNTVYLQMNSLKPEDTAVYYCAKDVPPVYPTSSYDYWGQGTQVTVSS”, the “polyreactivity (PSR sort gate)” value is on record as “low polyreactivity”. Under “QVQLVESGGGLVQAGGSLRISCAASGSTFDFYTMGWYRQAHGKEREMVASISWSGRTYYADSVKGRFTISRDNAKNTVYLQMTSLKPEDTAVYYCARRYVVNRDWGDDYWGQGTQVTVSS” stands “high polyreactivity”; under “QVQLVESGGGLVQAGGSLRISCAASGSTFDPNAMGWYRQAPGKERELVAVIDSGDGTTYYADSVKGRFTISRDIAKNTVSFQMISQKREDTAVYYCAVDESTSYYDDHEDYWGQRTQVTVSS”, “low polyreactivity”; under “QVQLVESGGGLVQAGGSLRISCAASGSTFGSYVMGWYRQAPGKERELVAAICGSGGSTYYADSVKGRFTISRDNAKHTVYLQMNSLKPEDTAVYYCAAYVYFPWYGYWGQATQVTVSS”, “high polyreactivity”.

For the sequence “QVQLVESGGGLVQAGGSLRISCAASGSTFGVNARGWYRQAPGKERELVAGITWTGGSTYYADSVKGRFTISRDNAKNTVYVQMNSLKPEDTAVYFCAKAWYSSYYDDSEDSWGQGTQVTVSS”, the “polyreactivity (PSR sort gate)” value is listed as “low polyreactivity”. Under “QVQLVESGGGLVQAGGSLRISCAASGSTFLTNTLGWYRQAPGKERELVAAITLRGGRTYYADSVKGRFTISRDNAKNTVYLQMNSLKPEDTAVYYCNARNYYYPSDRDYWGQGTQVTVSS” stands “low polyreactivity”. The result for “QVQLVESGGGLVQAGGSLRISCAASGSTFSRNAMGWYRQAPGKERELVAAISRRGDTTYYADSVKGRFTISRDNAKNTVYLQRNSLKPEDTGVYYCAASRYGYPKYGYWGQGTQVTVSS” reads “high polyreactivity”; that for “QVQLVESGGGLVQAGGSLRISCAASGSTFSRNVMGWYRQAPGKERELVAAISRGGSTNYADSVKGRFTISRDNAKKTVYLQMNSLKTEVTAVYYCNAPRLGKFYYWGQGTQVTVSS”, “low polyreactivity”; that for “QVQLVESGGGLVQAGGSLRISCAASGSTFSTYAMGSYRTEPGKERELVASISNGGSTNYEDSVKGRFTISRDNAKNTVYLQMNSLKPEDTAVYYFNAESKAKYDYFGQGTQVTVSS”, “low polyreactivity”.

“QVQLVESGGGLVQAGGSLRISCAASGSTFSYYTMGWYRQAPGKERELVAAISRTGGSTYYADSVKGRFTISRDNAKNTVYLQMNSLKPEDTAVYYCAADWTRGSPGMDYWVQGTQVTVSS”: the “polyreactivity (PSR sort gate)” value was “high polyreactivity”.

With “QVQLVESGGGLVQAGGSLRISCAASGSTFYIYSMGWYRQAPGKERELVARISGSGGSTYYADSVKVRFTISRDYAKNTVYLQMNSLKPEDTAVYYCAADDIYKYYLYYAFPYYRYDYWGLGTQVTVSS”, the “polyreactivity (PSR sort gate)” value is reported as “low polyreactivity”. Under “QVQLVESGGGLVQAGGSLRISCAASGSTINRYAMGWYRQAPWKERELVAAINWRGSRTYYADSVKGRFTISRDNAKNTVYLQMNSLKPEDTAVYDCAASLGANGFQGRMYYWGQGTQVTVSS” stands “low polyreactivity”. For “QVQLVESGGGLVQAGGSLRISCAASGYTFGNYAMGWYRQAPGKERELVAAISWRGARTNYADSVKGRFTISRDNAKNTVYLQMNSLKPEDTAVYYCAAGYYYGYPPRDYWGQGTQVTVSS”, the “polyreactivity (PSR sort gate)” value is recorded as “high polyreactivity”.

With “QVQLVESGGGLVQAGGSLRISCAASGYTSIIYAMGWYRQAPGTERECVASIRGRSGSTYYADSVKGRFTISRDNAKNTVYLQMNSLKPEDTAVYYCAARARYVNWQGFDYWGQGTQVTVSS”, the “polyreactivity (PSR sort gate)” value is “high polyreactivity”. Consider “QVQLVESGGGLVQAGGSLRISCAAYGRIFGYYALGWYRQAPGKERELVAAITSGGSTNYADSVKGRFTISRDNAKNTVYLQMNSLKPEDTAVYYCAARSWYFSWEMYYWGQGTQVTVSS”, for which the “polyreactivity (PSR sort gate)” value is “high polyreactivity”. Under “QVQLVESGGGLVQAGGSLRISCAPSGFIYSYAMGWYRQAPGKERELVASITLNGGSTYYADSVKGRFTISRDNAKNTVYLQMNSLKPEDTAVYYCNADRASLSIGGYYRLWYDYWGQGTQVTVSS” stands “high polyreactivity”. The result for “QVQLVESGGGLVQAGGSLRISCAPSGFTFGHYAMGWYRQAPGKERELVAAISYSGVRTYYADSVKGRFTISRDNAKNTVYLQMNSLKPEDTAVYYCNKYPAHYQTRRYDYWGQGTQVTVSS” reads “high polyreactivity”; that for “QVQLVESGGGLVQAGGSLRISCAPSGSIFESNAMGWYRQAPGKERELVADITYRGTRTYYADSVKGRFTISRDNAKNTVYLQMNSLKPEDTAVYYCAVWQDHYDWGQGTQVTVSS”, “low polyreactivity”; that for “QVQLVESGGGLVQAGGSLRISCAPSGSNINAYAIGWYRQSTGKERELVARITRGDGTTYYADSVKGRFTISRDNAMNTVYLQMNRLKPEDNAVYYCNRVEYYSVWGYDYWVQGTQVTVSS”, “low polyreactivity”. In the case of “QVQLVESGGGLVQAGGSLRISCAPSGSTFYKYTMGWYRQAPGKERELVAAISGSGTTTYYADSVKGRFTISRDNAKNTVYLRMNSLKPEDTAVYYCNTARGYDYGGLDYWGQGSQVTVSS”, the “polyreactivity (PSR sort gate)” value was “high polyreactivity”.

For “QVQLVESGGGLVQAGGSLRISCASSGRIFKINAMGWYRQAPGKERELVATITRDGRTYYADSVKGRFTISRDNAKKTVYLQMNSLKPDDTAVYYCNVRRAFSGWRGYDYWGQGTQVTVSS”, the “polyreactivity (PSR sort gate)” value was “high polyreactivity”. Under “QVQLVESGGGLVQAGGSLRISCASSGSIFVINAMGWYRQAPGKERELVAAIDWGGDTTYYADSVKGRFTISRDNAKITVYLQMNSLKPEDTAVYYCAADLFLWYEFEYWGQGTQVTVSS” stands “high polyreactivity”; under “QVQLVESGGGLVQAGGSLRISFAASGRTFFGYAMGWYRQAPGKERELVATIDGSDGSTFYADSVKGRFTISRDNAKNTVYLQMNSLKPEDTAVYYCAAENFWQSKEYDYWGQGTQVTVSS”, “low polyreactivity”; under “QVQLVESGGGLVQAGGSLRISFAASGYIFYNYARRSYRQAPGKERELLAAMTRGGSTNYADSVKGRFTISRDNAQNTVYLQMNSLKPEDTAGYYCAAEEGPPWSRYDSWGQGTQVTVSS”, “low polyreactivity”. Under “QVQLVESGGGLVQAGGSLRISSAASGFTFTPNAKGWYRQAPGKERELVAVITWNGGTTYYADSVKGRFTISRDNAQNTVYLQMNSLKPEDTAVYYCNADGLILYDYWGHGTQVTVSS” stands “low polyreactivity”. Under “QVQLVESGGGLVQAGGSLRISSAASGSTFFRYDLGWYRPAPGKEWELVAAITASGTRTYYADSVKGRFTISRDNAKNTVYLQMNSLKPEDTAVYYCAADSRRYGYDYWGQGYQVTVSS” stands “high polyreactivity”; under “QVQLVESGGGLVQAGGSLRISSAPSGITYYGNVMGWYRQAPGKERELVADISWSGGRTYYADSVKGRFTISRDNAKNTVYLQITSLKPEVTALYDCAAEGTTNRGVYASYDYWGQGTQVTVSS”, “low polyreactivity”.

Take “QVQLVESGGGLVQAGGSLRITCAASASIYYRYAMGWNRQAPGKERELVAAITYSGGSTYYADSVKGRFTISRDNAKNPVYLQMNSLKPEDTAVYYCAKDYPPPISDYSRYYGYGYWGQGTQVTVSS”: the “polyreactivity (PSR sort gate)” value is given as “low polyreactivity”. The result for “QVQLVESGGGLVQAGGSLRITCAASGLTFPPNAMGWYRQAPGKERELVAAITRSGGSTYYADSVKGRFTISRDNAKNTFYLQMNSLKPEDTAVYYCAVYLPYSQRYVHYYYWGQGPQVTVSS” reads “high polyreactivity”; that for “QVQLVESGGGLVQAGGSLRKSCAASGSIFADKAMGWYRQAPGKERELVATISAPDGSTYYADYVKGRFTISGDNAKNTVYLQMNSLKPEDTAVYYCAASGYYILSWRYDYWGQGTQVTVSS”, “low polyreactivity”.

Turning to “QVQLVESGGGLVQAGGSLRLAVLPPDLPSTLNDMGWYRQAPGKERELVAAITRGGSTNYADSVKGRFTLSRDNAKNTVYLQMNSLKPEDTAVYYCAAPYAGWRDGGDYWGQGTQVTVSS”, the “polyreactivity (PSR sort gate)” value is “low polyreactivity”. The result for “QVQLVESGGGLVQAGGSLRLCCAASGFILLDYAKGWYRQAPGNERELVAAISWSGARTYYADSVKRRFTISRDNAKNTVYLQMNSLKPEDTAVYYCATRYRWTPYDYWGQGTQVTVSS” reads “low polyreactivity”. Under “QVQLVESGGGLVQAGGSLRLCCAASGIIFDGYAMGWYRQAPGKERELVAGITIGDITYYADSVKGRFTISRDNAKNTVYLQMTSLKPEDTAVYYCAADSYYYQTAYDYWGQGTQVTVSS” stands “low polyreactivity”.
